# Laboratory results as given in the DeepSol protein solubility set.
# Test: soluble on expression in E. coli; label from the status in PepcDB or PDB records
row,Sequence,soluble on expression in E. coli
1,MGSDKIHHHHHHMVNGRFFTTAGESPAFRGRAWGRVVTQYFGGLDACCDGDDAFDAQLSQYEIGPMRVFTIAAPAHRIVRPVAALHDHGSDFFKLILQLSGVSEIEQRGKTFRLHSGDWSLYDPRVPYSIANLTHVEQLAIQIPRKQLGGFAVPDLHTSDVREFELKGLFSLLSSFLVSLSEQLPSLPGTTGTALSETILGLIVSTLTAQRDAQGEHVALPAVLRMRVKQYIHGHLADADLSIDRIARELRCSKRYLHRIFEEEGVTIDRYIWSSRLERCKDALDNARAAKPAISEIAFSWGFSSSAHFCRSFKQRYGMTPREFVRRRAWS,not soluble
2,MGSDKIHHHHHHMRIDVDAFKVLEVLVEEGSFAKAAERLHKAQSAVSYQIKKLEQHLGVSLLSREQYRAELTAEGRVILAEGQRLLSHLANIEHLASRFSEGWEPKLELVIDGALPMEPIMTALKRMAEHQIPTKIQLNMEFLGGVQHRFERDNADLMLVKDYRTGPYYYAKPLPAITSVLLAAPHHPLAGRKALTLTELQQHVELTIEDSSPVKTYRDELQFGGDKVFYLSGFIMKKNALLKGLGFGWMPDFLVRDELKAGLLTEIDFVGGSRYTFVPQLVSTLERPLGRAGRLFTELILEEFAKEPMGIPEGLG,not soluble
3,MSLDPHAPLAERLRPRTLDDVVGQSHLLGPGKPLRLAFDSGKLHSMILWGPPGVGKTTLARLTAQAFGADFIAISAVLSGVKDIREAVERARMNQKLGRATILFVDEVHRFNKSQQDAFLPHVESGLFTFIGATTENPSFEVVGALLSRAQVYVLKSLTPDELGRLMQRALQELPSLKLADGVDKLLAAYADGDARKLLNLLEQLDTAARTAQVEEADAAFVENALAQSLRRFDKGGEAFYDQISALHKSVRGSDPDASLYWLVRMLDGGADPRYLGRRLVRMASEDIGMADPRALRLALDAVETYERLGSPEGELALAEACLYLACAPKSNAAYVAYNAARAFVEANPSNDVPIHLRNAPTKLMKELGYGRAYRYAHDEPEAYAAGERYFPDDIAEQQFYEPTPRGLEGKIAEKLAHLRELDDEAEKEGHHHHHH,soluble
4,MGHHHHHHSHMAATAAVSPSDYLQPAASTTQDSQPSPLALLAATCSKIGPPAVEAAVTPPAPPQPTPRKLVPIKPAPLPLSPGKNSFGILSSKGNILQIQGSQLSASYPGGQLVFAIQNPTMINKGTRSNANIQYQAVPQIQASNSQTIQVQPNLTNQIQIIPGTNQAIITPSPSSHKPVPIKPAPIQKSSTTTTPVQSGANVVKLTGGGGNVTLTLPVNNLVNASDTGAPTQLLTASCQTGMLNSTRMFLFLAFINVL,not soluble
5,MGSDKIHHHHHHMAFDEMINADSSPRQPYSTYHQWYASQDRNRLIAKSKEAEKIFRKTGITFAVYGHADSSEKLIPFDLIPRIISGREWRRLAQGIEQRVIALNAFLDDIYHKQEIIRAGRIPRELVEKNDTFLPQMIGFRPPGGVYTHIVGTDIVRTGEDQYYVLEDNARTPSGVSYMLENRETMMQMFPELFHQNRVRPVENYPNLLRQSLSSLAPAGCEGKPRVAVLTPGIYNSAFYEHAFLADMMGVELVEGSDLRVIDGRVKMRTTRGYEAIDVLYRRVDDDFLDPLTFRPDSALGIPGIMDVYRAGNITIANAPGTGISDDKAIYSYMPEIVEFYTGRKPLLENVPTWRCSEPESLKYVLEHLAELVVKEVHGSGGYGMLVGPTATKKECAAFAEKLKSRPGNYIAQPTLSLSTVPIMVNKGIAPRHVDLRPYVLVSDKVQIIPGGLTRVALKEGSLVVNSSQGGGTKDTWVLED,not soluble
6,MAEVKKKIKPGAIEAHAEELAIVVHYEVQEVSTQSDGSQKVISKEPGEKKISVKSLSEKTNVPLLATEIIEKCKLIHPSKAGQVEELLYQLQSRGGGGGADAKAKPAAKPAAASPAKSAAAAPPPPSNVAQSPQKPGQPPSTPSKKPPAAAGAPAPMLNGKPAPKAQSRLDAEAEERADLQARRQAQAMQIFKMQQKQYEQAYMNKLDEYIEGLYEEEMPKKVRATGMIAQLFRNTENFEVLLSHETLMQTLSRVLREDGKRSIDLCTNIISVFFSVSNFTQFHGLIMQNQVGALTMDLIDLEIKRTEHRASEENISPAMVAQKALEASQGQVTLSEREKKLLALIQKQDRLLYIAFYMLLNLSEDIEVERKMKKKNIVVYLVKMLERSNVELLILATTFLKKLSIYKENKETMSSCKIVEKLMKFVPVLNDVLLMSVLRLLHNLSFDHSLRDDMVKHGLIPKAVELMMVPRFQPVVLGLLYHISMEDKYKSLFTFTDCLNKMYDMLMRVQADLRNTPELIALAVNLTQNPRNAETMCEGDRFDKMMRRAFQTCDELMFKVLRNLSQQEGINIKRRFGPYVEQLVTLLRAPDITAELFVEVLGCLANLYIPEFDFLGLVRKHDLLTFLATYAQPGAVDDDILLEVVMFVGVLCNEGTAPLIVSSGLVTTLFQLMGDKKEDDEFVLQIAFTFHKFLLHDETRASLLTNTQQVVFYLVDLLQDKNKEVRRVADQCLDIIMDTDEEWAVQIRNLKFESFNQEWLDVVSQPAGGMAAHAGRQRNGYDDETEVDYSGGDGYYNIGDQRLVADFDDLGTNGGTWGPGDEGLQGGYEGNYDGYDEEELRQGYAM,not soluble
7,MGSDKIHHHHHHMQIEMTGITKAFGPVPVLKGVDFTLATGEIHALMGENGAGKSTLMKILTGVHKADQGTILVDGVEQQYKNPKLAEEAGIAFIHQELNILPDLTVTENLFLGRELKSRFGVLKQAEMKRLAERELAELNVFMDVNQLARTLSVGQQQMIEIAKALMTDAKVIIMDEPTAALTEREIRALFSVATALREQGVSIVYISHRMEEIFELCDRITVLRDGVSVSTHRIADTSFEQIVREMVGREMGERYPERQVTLGQTVLEVTGATGKRFEDVSFSVRAGEIVGFSGLMGAGRTEVMRGLFGIDRMKAGTISLNGKTIKIKSPHDAIKQGLGFLTEDRKGEGLFLDFSLRENISLPTIRSLSKSGVISDQSERQFAEGYLKSLSVRHSSMDQPAKSLSGGNQQKVVLAKWLGTKPDVLILDEPTRGVDVGAKKEIYMIMDELAATGVAIIMISSDLPEILGMSDRVYVMREGQMSGMLNQEEATQESIMTLATGGQ,not soluble
8,MITVKNIEGSETYVLRQKILRPNQTLADCKYPSDYETDTFHLGAFINDQLISIASFSKEMHPDLQAGMHYRLRGMATLPEFRNNHAGSSLIQKAEQILQERQANMLWCNGRITVADYYKRLGFQEHGEIFEIEPIGLHKVLYKRI,not soluble
9,TKTEALTAEEAAKQYTNSLVEKALKAEKVYATYTQEQVDKIVAAMALAGSEASLQLAKEAHDETGRGVVEDKDTKNHFATEYVYERIKNEKTVGIIGEDKVAGSIEIAAPLGVLAGIVPTTNPTSTTMFKILVALKTRNAIVFAFHPAAQKCSAHAAQILYDAAVKAGAPENIVQWIETPSIANTGALISNKGIASILATGGPGMVNAALKSGNPSMGVGAGNGAVYVDATANLERAVEDLLLSKRFDNGMICATE,not soluble
10,SWSGLLPPGLNESDAESNSEDEATLENSGLNLQEDKEDESIRKTEIIDFSTDEPKTETESNVNAYEECPSGIPIDMWNKFQELHKKHSEQKSTTSRFRGKRRKRSRKDKLKNEKELHSEPSSNETQWKELTQYFGVNDRFDPPVKRKKVEKSGLEKRIDQAVEEWNIEKAEELSNQLATRELGVKIAKAVACHNFVKAKKEVENSQAARKKKKLAWGFEAKKRWETKSNMGYM,soluble
11,MGSDKIHHHHHHLVGISHDTDQRILEQAMNMIRENGEDQLSLRKLARAIGLTTGAFYKHFATKDALLRAVTQLLSQREEAEMAQVLGQITDPEEKLLVMAAEILERFEADPHLMHFLFFNPAARDVLKVEPGQFGFYDQVIQLIKDVLRKRGITIDPQILFIQLWSFIQGYGLLIDSGITSYDPNLVRKTLKDLLEVSND,not soluble
12,MCAALKRCAYRHKGKIMENTNIVTTEQQAPNTISASNAIFNVQALGQLTAFANLMADSQVTVPAHLAGKPADCMAIVMQAMQWGMNPYAVAQKTHLVNGVLGYEAQLVNAVIASSSAIHGRFHYRYGGDWERCTRTQEITRDKNGKNGKYTVTERVRGWTDEDEIGLFVQVGAILRGESEITWGEPLYLSGVVTRNSPLWVSNPKQQIAYLGVKYWARLYCPEVILGVYSPDEVEQREEREINPAPVQRMSVQEITSEVSTRTSAQESAANVDAVADDLRERIDTASSVDQAKAIRADIESQKALLGTALFTELKNKAVKRYYQVNAQNKVEAVINSIPNPGEPEAAEMFAKAESTLGAAKRHLGDELHDKYRVTLDDMKPEYIG,not soluble
13,MMQIDSIEIGGKVYQFFKSDLGNAPLLFIKGSKGYAMCGYLNMETSNKVGDIAVRVMGVKTLDDMLSAKVVEASQEAQKVGINPGDVLRNVIDKL,soluble
14,MSKKLLIKTWGCQMNEYDSSKMADLLNAANGYELTEEPEEADVLLLNTCSIREKAQEKVFHQLGRWKTLKDKKPGVVIGVGGCVATQEGDHIRERAPYVDVIFGPQTLHRLPEMIKQSQTDDAPVMDISFPEIEKFDRLPEPRAEGATAFVSIMEGCSKYCTYCVVPYTRGEEVSRPMDDVLFEIAQLAEQGVREVNLLGQNVNAYRGPMHDGEICSFAELLRLVASIDGIDRIRFTTSHPLEFTDDIIAVYEDTPELVSFLHLPVQSGSDRILTMMKRPHTAIEYKSIIRKLRKARPDIQISSDFIVGFPGETDKDFQDTMKLIKDVDFDMSFSFIFSPRPGTPAADYPCDIPEQVKKERLYELQQTINAQAMRYSRLMLATEQRVLVEGPSKKNLMELRARTENNRVVNFEGSADLIGQFVDVKITDVFANSLRGELVRTEKDMDLRSVISPTQMMAKTRREDELGVATFTPLEHHHHHH,soluble
15,MNNKEKGDFGEKVAVNYLLSKGAKILEKNYRLKIGEIDIIAKMEDEIIFVEVKSRSNIKFGYPCESVSFKKRKKIIGVASYYIIKNNLNNTPIRFDVIEVYLLEKRINHIMNAF,not soluble
16,MREPIVAIATPYGESAIGIVRLSGKGVLDLVKKFFKTKREIKPRYAHFGVLYDDKGEELDEGVLIYYKAPHSYTGEDMVELNLHGNPRILKRALELFVNAGARLAEPGEFTKRAFLNGKLDLTQAEAVAELISAKTELARKVALKQLHGELSKHIRPLRETLLELLAYVEADIEFAEEDIPTLTKEQVIQMVDKVIEGINELLKTAKTGKFIREGVKLAIVGRPNVGKSSLFNALLKEERAIVTDIAGTTRDFIEETLQIKGVPVRLVDTAGIRETKDLVERIGVERSKQKVKEADLILFVIDASQEITEEDLRIYEEIKEKDHIVVANKVDLGIRANLEKFKGEKIVKVSALKGTGLEELSEEILKKVGANLEESVNIYISVRHETLLKKAKEVLERFKEEFREKDISPEIAMLDLREASDYLGEILGEITTEDLLGKIFSTFCIGK,soluble
17,MAHHHHHHMSDAAPGPAPAPVTAAVDAPPLPAPTKVKPPRKKPPRAEEANPRLLAPANGVAAQQQKQRDKEFATHKAHILTNLQTNACDLSPKGSLDAKCLPVMGVLNTHKDYVTTSSCSGRIALFHSIKHSEACGADDGTATPKPRMKRGENAALGWVFVKHGMLRPMEMAQVVGFLCGAPTTPEDVALDSAQMEKHAAHMASVSCSAHCHSAAPGSLLAEMYDGEVEGALVGARVSGDEVAALPVPTRGTVSLKMEPFVMHVQCRTMEAAKLLLSAVVSDSGFRNSGVVPPGKKIMCGIRSAAGLGLEVPVVVDGVNHVASQRAYVWALLGLANEKMEANEKKIKLLERSVAARVLPA,soluble
18,GSSSLIRRVISTAKAPGAIGPYSQAVLVDRTIYISGQIGMDPSSGQLVSGGVAEEAKQALKNMGEILKAAGCDFTNVVKTTVLLADINDFNTVNEIYKQYFKSNFPARAAYQVAALPKGSRIEIEAVAIQGPLTTASL,soluble
